Results on three molecules are retold here after patent publication US11434289B2, “Anti-GPR20 antibody and anti-GPR20 antibody-drug conjugate” (DAIICHI SANKYO COMPANY, LIMITED, priority 2017, dated 2022).

B1: 04-079: rat anti-human GPR20 antibody; heavy chain SEQ ID NO: 12, light chain SEQ ID NO: 17 (antibody, listed as Rattus norvegicus)
heavy: MEWNWVFLFLLSVTAVVHSQVQLQQSGAELAKPGSSVKISCKASGYTFTSYYITWIKQTTGQGLKYIGYINPGSGHTNYNEKFKGKATLTVDKSSSTAFMQLSSLTPDDSAVYYCARGAGGFLRIISKFDYWGQGVMVTVSSAQTTAPSVYPLAPGCGDTTSSTVTLGCLVKGYFPEPVTVTWNSGALSSDVHTFPAVLQSGLYTLTSSVTSSTWPSQTVTCNVAHPASSTKVDKKVERRNGGIGHKCPTCPTCHKCPVPELLGGPSVFIFPPKPKDILLISQNAKVTCVVVDVSEEEPDVQFSWFVNNVEVHTAQTQPREEQYNSTFRVVSALPIQHQDWMSGKEFKCKVNNKALPSPIEKTISKPKGLVRKPQVYVMGPPTEQLTEQTVSLTCLTSGFLPNDIGVEWTSNGHIEKNYKNTEPVMDSDGSFFMYSKLNVERSRWDSRAPFVCSVVHEGLHNHHVEKSISRPPGK
light: METDRLLLWVLLLWVPGSTGDTVLTQSPALAVSLGQRVTISCRASKSVSTYMHWYQQRSGQQPKLLIYSASNLESGVPSRFSGSGSGTDFTLTIDPVKADDITNYYCQQSNELPYTFGAGTKLELKRADAAPTVSIFPPSTEQLATGGASVVCLMNNFYPRDISVKWKIDGTERRDGVLDSVTDQDSKDSTYSMSSTLSLTKADYESHNLYTCEVVHKTSSSPVVKSFNRNEC
modifications: SIGNAL (1)..(19); SIGNAL (1)..(20)
B2: 04-126: rat anti-human GPR20 antibody; heavy chain SEQ ID NO: 22, light chain SEQ ID NO: 27 (antibody, listed as Rattus norvegicus)
heavy: MEWNWVFLFLLSVTAEVHSQVQLRQSGAELAKPGSSVKISCKASGYTFTSYYIIWMKQTAGQGLQYVGYINPGSGHTNYNEKFKGKATLTVDKSSSTAFMQLSSLTPDDSAVYYCARGTGGFLRIISKFDYWGQGVMVTVSSAQTTAPSVYPLAPGCGDTTSSTVTLGCLVKGYFPEPVTVTWNSGALSSDVHTFPAVLQSGLYTLTSSVTSSTWPSQTVTCNVAHPASSTKVDKKVERRNGGIGHKCPTCPTCHKCPVPELLGGPSVFIFPPKPKDILLISQNAKVTCVVVDVSEEEPDVQFSWFVNNVEVHTAQTQPREEQYNSTFRVVSALPIQHQDWMSGKEFKCKVNNKALPSPIEKTISKPKGLVRKPQVYVMGPPTEQLTEQTVSLTCLTSGFLPNDIGVEWTSNGHIEKNYKNTEPVMDSDGSFFMYSKLNVERSRWDSRAPFVCSVVHEGLHNHHVEKSISRPPGK
light: METDRLLLWVLLLWVPGSTGDTVLTQSPALAVSLGQRVTISCRASKSVSTYMHWYQQRSGQQPKLLIYSASTLESGVPSRFSGSGSGTDFTLTIDPVEADDIANYYCQQSNELPYTFGAGTKLELKRADAAPTVSIFPPSTEQLATGGASVVCLMNNFYPRDISVKWKIDGTERRDGVLDSVTDQDSKDSTYSMSSTLSLTKADYESHNLYTCEVVHKTSSSPVVKSFNRNEC
modifications: SIGNAL (1)..(19); SIGNAL (1)..(20)
B3: 04-046: rat anti-human GPR20 antibody; heavy chain SEQ ID NO: 2, light chain SEQ ID NO: 7 (antibody, listed as Rattus norvegicus)
heavy: MEWNWVFLFLLSVTAEVHSQVQLQQSGAELAKPGSSVKISCKASGYTFTSYYISWIKQTTGQGLKYIGFINPGSGHTNYNEKFKGKATLTVDKSSSTAFMQLSSLTPDDSAIYYCARGAGGFLRIITKFDYWGQGVMVTVSSAQTTAPSVYPLAPGCGDTTSSTVTLGCLVKGYFPEPVTVTWNSGALSSDVHTFPAVLQSGLYTLTSSVTSSTWPSQTVTCNVAHPASSTKVDKKVERRNGGIGHKCPTCPTCHKCPVPELLGGPSVFIFPPKPKDILLISQNAKVTCVVVDVSEEEPDVQFSWFVNNVEVHTAQTQPREEQYNSTFRVVSALPIQHQDWMSGKEFKCKVNNKALPSPIEKTISKPKGLVRKPQVYVMGPPTEQLTEQTVSLTCLTSGFLPNDIGVEWTSNGHIEKNYKNTEPVMDSDGSFFMYSKLNVERSRWDSRAPFVCSVVHEGLHNHHVEKSISRPPGK
light: METDRLLLWVLLLWVPGSTGDTVLTQSPALAVSLGQRVTISCRASKSVSTYIHWYQQRSGQQPKLLIYSASNLESGVPSRFSGSGSGTDFTLTIDPVEPDDIANYYCQQINELPYTFGAGTKLELKRADAAPTVSIFPPSTEQLATGGASVVCLMNNFYPRDISVKWKIDGTERRDGVLDSVTDQDSKDSTYSMSSTLSLTKADYESHNLYTCEVVHKTSSSPVVKSFNRNEC
modifications: SIGNAL (1)..(19); SIGNAL (1)..(20)

For this test, the target named is T1, human GPR20 (Homo sapiens, UniProt Q99678).
T1 construct: expressed in transfected cells; host or cells: 293T cells, transient, Lipofectamine 2000
T1 sequence (Q99678 whole entry): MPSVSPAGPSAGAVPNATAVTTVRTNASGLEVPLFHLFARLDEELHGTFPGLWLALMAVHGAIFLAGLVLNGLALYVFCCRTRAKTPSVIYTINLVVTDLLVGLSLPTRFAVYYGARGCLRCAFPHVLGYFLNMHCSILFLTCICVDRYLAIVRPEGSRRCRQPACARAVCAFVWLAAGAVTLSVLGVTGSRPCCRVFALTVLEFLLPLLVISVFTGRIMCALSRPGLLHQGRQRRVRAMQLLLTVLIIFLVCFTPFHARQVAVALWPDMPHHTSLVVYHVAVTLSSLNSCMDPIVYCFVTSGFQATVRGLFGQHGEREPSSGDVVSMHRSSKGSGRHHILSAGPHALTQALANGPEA
The experiment in a line: Human GPR20-binding antibody screening by flow cytometry (hybridoma culture supernatants, transfected 293T cells). Particulars: hybridoma culture supernatant; 293T cells transfected with pcDNA3.1-hGPR20 vs control pcDNA3.1; FIG. 18. As for the experimental part:
293T cells were seeded in a 225-cm^2 flask (Sumitomo Bakelite Co., Ltd.) at 5×10^4 cells/cm^2, and the cells were then cultured overnight under conditions of 37° C. and 5% CO2 in DMEM medium supplemented with 10% FBS. pcDNA3.1-hGPR20 or pcDNA3.1 as a negative control was introduced into the 293T cells using Lipofectamine 2000, and the cells were further cultured overnight under conditions of 37° C. and 5% CO2. The 293T cells transfected with each expression vector were treated with TrypLE Express (Life Technologies Corp.), and the cells were washed with DMEM supplemented with 10% FBS, and then suspended in PBS supplemented with 5% FBS. The obtained cell suspension was used in flow cytometry analysis.
The binding specificity to human GPR20 of an antibody produced from hybridomas that had been determined to be positive by Cell-ELISA in Example 1)-4-2 was further confirmed by flow cytometry. The suspension of the transiently expressing 293T cells prepared in Example 1)-5-1 was centrifuged, and a supernatant was then removed. Thereafter, the cells were suspended by the addition of the culture supernatant from each hybridoma. The cells were left standing at 4° C. for 1 hour. The cells were washed twice with PBS supplemented with 5% FBS, and thereafter, the cells were suspended by the addition of Anti-Rat IgG FITC conjugate (Sigma-Aldrich Co. LLC) that had been 500-fold diluted with PBS supplemented with 5% FBS. […] The data was analyzed using Flowjo (Tree Star, Inc.). After dead cells were removed from analysis by gating out 7-aminoactinomycin D-positive cells, a histogram of the FITC fluorescence intensity of live cells was generated. Hybridomas producing human GPR20-binding antibodies (178 clones) were selected based on results where the histogram for the antibody shifted to the strong fluorescence intensity side in the 293T cells transfected with pcDNA3.1-hGPR20 compared with the 293T cells transfected with the control pcDNA3.1. […] The abscissa of FIG. 18 depicts clone No., and the ordinate thereof depicts the amount of the antibody bound based on MFI (mean fluorescence intensity).
On to B1, for which the “binding to human GPR20 (amount of the antibody bound based on MFI)” value is on record as “specifically binding to human GPR20”. The same measure for B2: “specifically binding to human GPR20”; for B3: “specifically binding to human GPR20”.
